# Results from the RNAGym collection of RNA variant scans (doi:10.7554/elife.80360).
# B1: CPEB3 Ribozyme (parent)
# chain: GGGGGCCACAGCAGAAGCGUUCACGUCGCGGCCCCUGUCAGAUUCUGGUGAAUCUGCGAAUUCUGCUGU
# Variants of: B1
# Experiment: self-cleavage, relative activity (ratio to wild type); higher = more cleavage; co-transcriptional
row,Variant,self-cleavage
1,G2A A16U,0.1
2,G1U U67A,0.167
3,G1U U67G,0.204
4,G1U U67C,0.0935
5,G2C G30A,0.0388
6,G2C G30U,0.0301
7,G2A C22U,0.051
8,G2A C22G,0.0504
9,G2A G11C,0.0914
10,G2A G11U,0.117
11,G2A G11A,0.101
12,G2A C33U,0.0941
13,G2A C33A,0.0406
14,G2A C12G,0.123
15,G1U G58C,0.128
16,G1U G58U,0.137
17,G2A G30U,0.058
18,G2A G30A,0.0606
19,G2A G30C,0.0605
20,G2A G56C,0.0906
21,G2A G56U,0.0991
22,G2A G56A,0.1
23,G2A G48C,0.227
24,G2A G48U,0.215

row,Variant,self-cleavage
1,G2A G48A,0.213
2,G1U U38G,0.0202
3,G1U U38C,0.0816
4,G2A A60C,0.0397
5,G2C A13G,0.084
6,G2C A13U,0.0221
7,G2A C9G,0.411
8,G2A C9U,0.493
9,G2A C9A,0.435
10,G2A U64A,0.115
11,G2A U64G,0.0844
12,G2A U64C,0.0804
13,G2A A23G,0.15
14,G2A A23C,0.111
15,G2C A15G,0.0305
16,G2C A15U,0.0423
17,G2C A15C,0.0125
18,G2C A42G,0.0702
19,G2A C35A,0.0641
20,G2A C35U,0.542
21,G2A C35G,0.0841
22,G2A C57G,0.047
23,G2A C57A,0.0762
24,G2A C57U,0.0401

row,Variant,self-cleavage
1,G2C C45U,0.0464
2,G2C C45A,0.0472
3,G2C C45G,0.0374
4,G1U U20A,0.042
5,G1U U62G,0.0907
6,G1U U62A,0.137
7,G1U U62C,0.0771
8,G2C C29G,0.0119
9,G2C C29U,0.0639
10,G2C U64A,0.0485
11,G2C U64C,0.0536
12,G2C U64G,0.137
13,G2C U67C,0.106
14,G2C U67A,0.0227
15,G2A G50C,0.154
16,G2A G50A,0.177
17,G2A G50U,0.173
18,G2C G11A,0.0352
19,G2C G11U,0.0219
20,G2C G11C,0.0455
21,G2C G47C,0.0332
22,G2A U36G,0.209
23,G2A U36C,0.129
24,G2A U36A,0.0357

row,Variant,self-cleavage
1,G2A A52G,0.242
2,G2A A52U,0.12
3,G2C U36C,0.063
4,G2A G65C,0.122
5,G2A G65U,0.067
6,G2A A51C,0.0717
7,G2A A51G,0.158
8,G2A A51U,0.233
9,G2C C54U,0.0485
10,G2C C54A,0.0299
11,G2C G37A,0.0459
12,G2C G37U,0.0045
13,G2A U55C,0.0545
14,G2A U55A,0.109
15,G2A U55G,0.0739
16,G2A G58U,0.221
17,G2A G58C,0.106
18,G2A G58A,0.0846
19,G2A C45G,0.217
20,G2A A8G,0.105
21,G2A A8U,0.199
22,G2C G41C,0.0808
23,G2C G41U,0.101
24,G2C A8U,0.0675

row,Variant,self-cleavage
1,G2C A8C,0.039
2,G2C U61G,0.0289
3,G2C U61A,0.0082
4,G2C U61C,0.048
5,G2A U61C,0.0999
6,G2A C29U,0.0474
7,G2A C29G,0.0351
8,G2A C29A,0.0397
9,G1U U36G,0.0723
10,G1U U36C,0.102
11,G1U G65A,0.0898
12,G1U G65U,0.0644
13,G1U G65C,0.0555
14,G2C C34U,0.0646
15,G2C C34A,0.0678
16,G2C G25U,0.0456
17,G2C G25C,0.0473
18,G2C U21A,0.0234
19,G2C U21G,0.0813
20,G1U U44A,0.0951
21,G1U U44G,0.127
22,G1U U44C,0.106
23,G2C G56C,0.0446
24,G2C G56A,0.014

row,Variant,self-cleavage
1,G2C G56U,0.0319
2,G2A U38C,0.117
3,G2A U38A,0.134
4,G2C G68A,0.11
5,G2C G68C,0.114
6,G2C A16G,0.0604
7,G2C A16U,0.0422
8,G2C A16C,0.0354
9,G2A C24G,0.0162
10,G2C C22U,0.0697
11,G2C C22A,0.0368
12,G2A A15U,0.0881
13,G2A A15C,0.0708
14,G2A C32U,0.0612
15,G2C U55C,0.0587
16,G2C U55G,0.0548
17,G2A C27A,0.0442
18,G2A C27U,0.0441
19,G2A C27G,0.0739
20,G2C U26G,0.0511
21,G2C U26A,0.0328
22,G2C U26C,0.0734
23,G2C G28A,0.0369
24,G2C G28U,0.0543

row,Variant,self-cleavage
1,G2C G28C,0.0457
2,G2C C35G,0.313
3,G2C C35A,0.0223
4,G2A U44C,0.123
5,G2A U20G,0.0568
6,G1U U21C,0.119
7,G1U U21G,0.0804
8,G2A U62A,0.11
9,G2A U62G,0.129
10,G2A U62C,0.146
11,G2C A51G,0.0786
12,G2C A51C,0.0374
13,G2A G47C,0.176
14,G2A G47A,0.189
15,G2A U53G,0.109
16,G2C C33U,0.0465
17,G2C C33G,0.0592
18,G2C C33A,0.0155
19,G2A A42C,0.0844
20,G2A A42U,0.0966
21,G2A U26C,0.114
22,G2A U26A,0.11
23,G2A U26G,0.0691
